Source: patent US20090130120A1 (published 2009)

Tests used:
[1] = target: F protein on live RSV virus (strain not stated) (respiratory syncytial virus (RSV)); assay: cell-based or functional assay
[2] = target: T1, RSV G protein of group A strain (Ga protein) (respiratory syncytial virus (RSV), …, UniProt P03423 1-298); assay: Biacore, antibody on chip, recombinant Ga in flow
T1 construct: also called RSV-Ga; RSV-GA2 protein
T1 sequence: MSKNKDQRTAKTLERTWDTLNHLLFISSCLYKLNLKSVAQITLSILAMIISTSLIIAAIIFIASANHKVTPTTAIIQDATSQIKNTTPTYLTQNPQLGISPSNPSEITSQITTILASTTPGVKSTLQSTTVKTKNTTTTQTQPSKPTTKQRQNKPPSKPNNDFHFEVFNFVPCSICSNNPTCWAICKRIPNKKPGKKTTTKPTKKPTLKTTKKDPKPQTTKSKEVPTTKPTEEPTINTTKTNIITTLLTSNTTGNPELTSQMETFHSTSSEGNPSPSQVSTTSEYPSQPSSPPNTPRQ

[3] = target: T2, 12-mer Ga derived peptide HFEVFNFVPCSI; assay: array of overlapping 12-mer peptides, 1 ug/ml antibody, chemiluminescence
T2 construct: also called (169) HFEVFNFVPCSI (176)
T2 peptide: HFEVFNFVPCSI

## Synagis® (palivizumab) (antibody)
[1]
  IC50, plaque assay for neutralization of RSV on HEp2 cells with rabbit complement: 0.3 µg/mL
  affinity according to the plaque neutralization assay: 2 nM

B1: 10C6 (antibody, V domains shown)
VH: QVQLVESGGGVVQPGRSLRLSCEASGFTFSGYAMHWVRQAPAKGLEWVAVISFDGSNNYYADSVKGRFTISRDNSKNMLFLQMNSLRAEDTAVYYCVRPDVIAVAGTALSNPFDLWGLGTMVTVSS
VL: EIVMTQSPATLSVSPGERALSCRASQSVRSNLVWYQQKPGQAPRLLIFGASTRATGIPARFSGSGSGTEFTLTISSLQSEDFALYFCQQNNNWPPTFGQGTRLEIK
[2]
  Kd: 0.055 nM

B2: murine monoclonal antibody 131-2G (antibody, V domains shown)
VH: EVQLQQSGPELVKPGTSVKISCKASGYSFTGFTMNWVKQSHGKNLEWFGLINPFNGNTGYNQKFKGKATLTVDKSSSTAFMELLSLTSEDSAVYYCARSGKSYDYEAWFTYWGQGTLVTVSA
VL: DIVMTQTTLSLPVSLGNQASISCRSSQTIVHTNGNTYLEWYLQKPGQSPKLLIYKVSNRFSGVPDRFSGSGSGTDFILNISRVEAEDLGVYYCFQGSHVPFTFGSGTKLEIKR
notes: Only variable regions are printed
[3]
  binding result: binds
